Laboratory results reported in patent publication US9289492B2, “Collecting ovarian cancer stem cells from ovarian cancer cells” (The General Hospital Corporation, priority 2007, dated 2016).
Like-named read-outs stand apart in the source and are kept apart here.

Experiments:
[1] = tested on: MOVCAR 7 SP cells; test: MTT proliferation assay, MOVCAR 7 SP cells; type: cell-based, mouse; conditions: for inhibition at 0.004 µM: Mus musculus, 4 nM drug, compared with vehicle-treated controls, read-out: inhibition (MTT growth inhibition)
Procedure: (§1) MTT assay was used to assess proliferation inhibition. MOVCAR 7 and 4306 cells were harvested, sorted for SPs and NSPs, and plated in the inner wells of 96-well plates at 1,000 cells per well in 200 μl of medium per well. […] At day 5 or 7 of incubation, cell viability was quantified by measuring mitochondrial activity (38) on an ELISA plate reader at an absorbance of 550 nm to generate an OD proportional to the relative abundance of live cells in a given well.
(§2) Statistical Analysis. In MTT assays, MIS-, doxorubicin-, and paclitaxel-treated and untreated samples were analyzed by using the univariant two-tailed Student t test, with P ≦0.05conferring statistical significance. All experiments were performed in triplicate. In ovarian somatic stem cell studies, all p-values were calculated with the use of two-tailed student's t-test. Differences with p-values less than 0.05 were considered significant.

[2] = tested on: MOVCAR 7 NSP cells; test: MTT proliferation assay, MOVCAR 7 NSP cells; type: cell-based, mouse; conditions: for inhibition at 0.004 µM: Mus musculus, read-out: inhibition (MTT growth inhibition)
Procedure: as §1, §2

[3] = tested on: 4306 cells; test: Hoechst 33342 side population flow cytometry with verapamil, 4306; type: cell-based, mouse; conditions: 4306, verapamil 25-50 μg/ml, Hoechst 33342 flow cytometry
Procedure: (§3) Flow cytometry was performed in the Department of Pathology and Center for Regenerative Medicine Flow Cytometry Laboratory according to their published protocols (36). Mouse and human ovarian cancer SP sorting and immunophenotyping were performed as described in Supporting Methods, which is published as supporting information on the PNAS web site.
(§4) SP cells were identified and electronically gated on a Digital Vantage cell sorter (Becton Dickinson) after excitation of the Hoechst dye with 150 mW of 350 nm UV light. SP fluorescence emissions were directed toward a 610-nm dichroic filter and captured simultaneously through both a blue (450-nm) band-pass and a red (675-nm) long-pass filter on a linearly amplified fluorescence scale.

[4] = tested on: MOVCAR 7 cells; test: Hoechst 33342 side population flow cytometry with verapamil, MOVCAR 7; type: cell-based, mouse; conditions: MOVCAR 7, verapamil 25-50 μg/ml, Hoechst 33342 flow cytometry
Procedure: as §3, §4

[5] = target: T1, BCRP1 transporter (Homo sapiens, UniProt Q9UNQ0); conditions: reference 23; cited from earlier work
T1 sequence (Q9UNQ0 1-655): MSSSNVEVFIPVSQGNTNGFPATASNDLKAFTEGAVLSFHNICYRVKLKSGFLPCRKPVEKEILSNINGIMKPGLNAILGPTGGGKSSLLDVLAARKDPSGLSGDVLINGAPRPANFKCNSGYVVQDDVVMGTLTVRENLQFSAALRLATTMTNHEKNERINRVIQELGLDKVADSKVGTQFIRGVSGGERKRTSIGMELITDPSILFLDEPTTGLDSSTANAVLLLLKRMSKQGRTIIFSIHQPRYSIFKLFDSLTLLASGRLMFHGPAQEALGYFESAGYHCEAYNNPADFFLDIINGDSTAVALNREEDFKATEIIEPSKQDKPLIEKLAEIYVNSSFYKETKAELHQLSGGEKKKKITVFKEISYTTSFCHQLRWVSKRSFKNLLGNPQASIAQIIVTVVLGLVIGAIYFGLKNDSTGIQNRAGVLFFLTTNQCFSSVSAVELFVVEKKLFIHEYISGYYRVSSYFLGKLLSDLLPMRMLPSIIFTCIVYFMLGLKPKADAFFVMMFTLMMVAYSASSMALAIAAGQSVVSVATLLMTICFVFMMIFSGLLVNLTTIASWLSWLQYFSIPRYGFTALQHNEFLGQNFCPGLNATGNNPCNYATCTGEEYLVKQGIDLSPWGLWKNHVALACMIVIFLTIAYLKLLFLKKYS

[6] = tested on: MOVCAR 7; conditions: in vivo, reference 25; cited from earlier work
[7] = tested on: 4306 SP cells; test: MTT proliferation assay, 4306 SP cells; type: cell-based, mouse
Procedure: as §1, §2

[8] = tested on: MOVCAR 7; conditions: in vitro, reference 25; cited from earlier work
[9] = Organ culture bioassay for MIS; conditions: purified recombinant human MIS
Procedure: The human MIS gene was transfected into CHO cells, amplified, purified, and maintained in a dedicated facility in the Pediatric Surgical Research Laboratories for use in this study as described in ref.39. MIS levels were measured by using human MIS-specific ELISA (40). MIS was purified by a combination of lectin affinity chromatography and FPLC anion-exchange chromatography (39).

[10] = tested on: OVCAR 8 cells; conditions: references 25, 35; cited from earlier work
[11] = tested on: human anchorage-independent Mullerian tumors; conditions: soft agarose, reference 34; cited from earlier work
[12] = tested on: MOVCAR 8 cells; conditions: references 25, 35; cited from earlier work
[13] = 4 nM drug, versus vehicle-treated controls

## CC(=O)O[C@H]1C(=O)[C@@]2(C)[C@H]([C@H](OC(=O)c3ccccc3)[C@]3(O)C[C@H](OC(=O)[C@H](O)[C@@H](NC(=O)c4ccccc4)c4ccccc4)C(C)=C1C3(C)C)[C@]1(OC(C)=O)CO[C@@H]1C[C@@H]2O [paclitaxel]
[1]; MOVCAR 7 SP cells
  inhibition at 0.004 µM: 85%
[2]; [13]
  inhibition (MTT growth inhibition): 88%
  inhibition at 0.004 µM: 83%

## COc1ccc(CCN(C)CCCC(C#N)(c2ccc(OC)c(OC)c2)C(C)C)cc1OC (stereo not drawn) [Verapamil, verapamil]
[3]
  elimination of the SP: effectively eliminated the SP
[4]
  elimination of the SP: effectively eliminated the SP

## COc1cccc2c1C(=O)c1c(O)c3c(c(O)c1C2=O)C[C@@](O)(C(=O)CO)C[C@@H]3O[C@H]1C[C@H](N)[C@H](O)[C@H](C)O1 [doxorubicin]
[1]; MOVCAR 7 SP cells
  inhibition at 0.004 µM: 30%
[5]
  substrate of the BCRP1 transporter: is a substrate
[2]; [13]
  inhibition at 0.004 µM: 81%

B1: MIS: Recombinant human Mullerian Inhibiting Substance protein (SEQ ID NO: 16), produced in CHO cells and purified (protein, listed as Homo sapiens)
chain: MRDLPLTSLALVLSALGALLGTEALRAEEPAVGTSGLIFREDLDWPPGSPQEPLCLVALGGDSNGSSSPLRVVGALSAYEQAFLGAVQRARWGPRDLATFGVCNTGDRQAALPSLRRLGAWLRDPGGQRLVVLHLEEVTWEPTPSLRFQEPPPGGAGPPELALLVLYPGPGPEVTVTRAGLPGAQSLCPSRDTRYLVLAVDRPAGAWRGSGLALTLQPRGEDSRLSTARLQALLFGDDHRCFTRMTPALLLLPRSEPAPLPAHGQLDTVPFPPPRPSAELEESPPSADPFLETLTRLVRALRVPPARASAPRLALDPDALAGFPQGLVNLSDPAALERLLDGEEPLLLLLRPTAATTGDPAPLHDPTSAPWATALARRVAAELQAAAAELRSLPGLPPATAPLLARLLALCPGGPGGLGDPLRALLLLKALQGLRVEWRGRDPRGPGRAQRSAGATAADGPCALRELSVDLRAERSVLIPETYQANNCQGVCGWPQSDRNPRYGNHVVLLLKMQARGAALARPPCCVPTAYAGKLLISLSEERISAHHVPNMVATECGCR
[6]
  inhibition of MOVCAR 7: inhibit
[7]; 4306 SP cells after sort 2, 10 μg/ml MIS
  inhibition by MIS (MTT): 60%
[7]; 4306 SP cells after sort 3, 10 μg/ml MIS, not significant
  inhibition by MIS (MTT): 17%
[7]; 4306 SP cells, first sort, 10 μg/ml MIS, vs. vehicle control
  inhibition by MIS (MTT): 37%
[8]
  inhibition of MOVCAR 7: inhibit
[1]; MOVCAR 7 SP cells after sort 2, 10 μg/ml MIS
  inhibition by MIS (MTT): 93%
[1]; MOVCAR 7 SP cells after sort 3, 10 μg/ml MIS
  inhibition by MIS (MTT): 94%
[1]; MOVCAR 7 SP cells, first sort, 10 μg/ml MIS, versus vehicle
  inhibition by MIS (MTT): 86%
[9]
  regression in organ culture bioassay: causes regression
[10]
  inhibition of OVCAR 8 cells: inhibits
[11]
  inhibition of anchorage-independent tumors: inhibits
[12]
  inhibition of MOVCAR 8 cells: inhibits
[2]; first sort, 10 μg/ml MIS, versus vehicle
  inhibition by MIS (MTT): 93%
